From the supplement of paper PMC10567573

B1: ANKRD9 (parent)
chain: LLEDMRASEAFHWDERGRAAAYSP
B2: TRAF3IP2 (parent)
chain: APWNYHYHCPGSPDHQVPYGHDYP

Variants of: B1
Assay: protein stability index of a GFP-peptide fusion (GPS, HEK-293T) (PSI 1-6); higher = more stable
Settings: c terminus: a fixed tail appended
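Further: lentivirally expressed fusions sorted by FACS into six bins by GFP to DsRed ratio, PSI derived from sequencing read proportions per bin multiplied by bin number.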

Protein stability index: each site, then its substitutions
G17: C 2.39, R 2.06, F 2.59, K 1.78, H 1.44, W 1.1, E 2.31, T 1.42, V 3.02, N 2.52
S23: M 2.68, L 2.1, G 1.68, V 2.08, D 2.09, F 1.35, E 1.85, Q 3.31, H 1.98, P 1.4, I 2.61, K 2.05, T 2.08, R 1.91, N 1.16, A 2.09, Y 1.74
R16: T 1.74, N 1.93, Q 1.9, G 1.88, I 3.12, V 1.79, M 1.32, H 2.44, L 2.41, W 1.58, K 1.32, S 1.44
R18: L 2.24, C 1.69, Y 1.71, M 2.34, T 1.7, E 1.96, K 1.8, G 2.12, D 1.91, N 2.14, F 2.22, A 2.65, S 1.88, P 1.56, Q 1, V 2.36, I 1.65, H 2.66
P24: V 1.68, S 3.62, H 2.19, F 1.23, D 1.75, L 1.38, R 1.75, T 2.34, E 2.48, Q 1.58, A 2.1, Y 1.6, N 2.41, K 1.53
A21: P 1.86, H 1.45, R 2.23, S 1.62, D 2.06, K 1.95, W 1.42, M 1.96, T 1.43, F 2.55, N 2.15, V 3.25, C 2.15, G 1.33, I 1.71, Q 2.29, E 2.53, Y 2.08, L 1.87
A19: S 2.23, D 1.36, H 1.69, I 1.03, Q 1.22, W 1.53, N 1.84, V 1.99, P 2.31, E 1.55, F 1.54, C 2.26, R 1.84, L 2.39, Y 1.28, T 1.88, K 2.27
Y22: T 4.08, E 2.62, C 1.8, M 1.64, A 3.01, H 1.76, G 1.63, L 1.81, K 2.18, I 2.17, Q 2.39, R 1.81, D 2.2, S 2
A20: M 2.55, F 1.81, Q 1.48, L 2.27, R 1.1, H 2.13, V 1.34, T 2.36, I 1.97, D 2.64, C 1.46, K 1.62, E 1.92, Y 1.85, S 1.62, P 1.92

Variants of: B2
Assay: as above
Settings: c terminus: a fixed tail appended

Protein stability index of substitutions, site by site:
A1: V 1.71, C 2.72, M 2.5, S 2.18, R 2.1, F 2.12, T 1.87, L 2.08, G 3.39, P 2.71, Q 1.53, E 2.91, H 3.12, D 3.33, N 2.32, K 2.81, Y 2.37, I 1.71
H8: D 2.9, E 2.25, R 1.66, V 1.95, Y 1.84, G 2.12, F 2.22, W 2.26, N 2.1, L 2.2, I 2.08, Q 2.82, P 1.99, S 2.44, A 2.06, T 2.41, M 1.69, C 2.42, K 1.73
C9: D 2.59, S 2.52, E 2.55, L 1.98, R 2.52, M 2.73, I 1.85, G 2.05, A 2.08, N 2.17, H 2.28, W 1.78, Q 2.16, P 1.9, F 1.93, Y 2.16, K 2.66, T 1.69, V 2.7
Y5: E 4.08, H 2.63, K 3.14, M 3, R 3.04, N 3.43, P 3.84, T 3.52, G 3.96, D 3.93, W 2.91, I 3.64, V 3.21, F 2.19, C 3.43, S 3.47, A 3.65, Q 2.94, L 3.3
N4: S 3.36, Y 2.54, K 2.24, E 3.39, L 2.26, C 2.17, A 1.7, T 2.63, I 2.43, W 1.51, D 3.54, M 2.78, Q 3.04, F 2.63, H 1.97, V 2.12, G 2, P 2.59
Y7: E 3.6, S 2.82, I 2.52, A 3.15, K 2.91, N 3.4, P 3.29, C 2.49, H 3.42, G 3.43, V 2.67, W 1.99, Q 3.83, F 2.4, M 1.5, L 2.6, R 3.09, D 3.79, T 2.85
P2: Q 2.35, D 3.38, N 3.37, L 1.76, G 1.59, Y 1.51, H 2.26, F 1.95, C 2.15, S 2.1, A 2.66, T 2.21, W 1.27, M 2.07, E 3.07, V 2.45, K 2.04, R 2.28, I 1.58
P10: C 1.5, W 1.46, N 2.08, V 2.09, Q 2.04, A 1.69, E 2.27, H 1.96, K 2.4, Y 2.13, S 2.08, R 1.29, L 1.54, G 1.71, T 1.86, F 2.07, D 2.31, M 2.02, I 1.66
G11: C 2.02, I 1.63, E 2.06, L 2.31, K 1.92, F 2.73, D 2.21, H 2.11, A 2.55, M 3.15
H6: R 2.9, D 3.57, Y 2.02, V 1.94, F 2.14, E 4.43, M 2.54, P 3.38, I 2.42, L 2.39, T 2.94, A 2.73, N 3.15, G 2.96, S 3.2, Q 2.97, W 2.59, K 2.97, C 3.34
W3: T 4.03, C 4.01, V 2.52, A 3.6, I 3.39, Q 3.54, S 3.95, L 3.03, Y 3.04, M 3.08, E 4.48, D 4.04, F 2.22, G 3.43, R 3.72, H 3.51, N 4.12, K 3.05
